Reference: publication PMC3899036, “Subunit Positioning and Stator Filament Stiffness in Regulation and Power Transmission in the V1 Motor of the Manduca sexta V-ATPase^☆” (Journal of Molecular Biology, 2014)
One block for each molecule: values may come before it.

Key:
[1] = target: recombinant His6-tagged V-ATPase subunit C (Manduca sexta) (UniProt Q9U5N1); assay: SEC; V1 incubated with C-His6, Superose-6 column, 20 mM Tris-HCl, 100 mM NaCl, 10 mM KCl, 2 mM 2-mercaptoethanol, pH 8.0, 0.25 ml/min; fractions on SDS-PAGE with densitometry; apparent stoichiometry
recombinant His6-tagged V-ATPase subunit C (Manduca sexta), sequence (Q9U5N1 whole entry): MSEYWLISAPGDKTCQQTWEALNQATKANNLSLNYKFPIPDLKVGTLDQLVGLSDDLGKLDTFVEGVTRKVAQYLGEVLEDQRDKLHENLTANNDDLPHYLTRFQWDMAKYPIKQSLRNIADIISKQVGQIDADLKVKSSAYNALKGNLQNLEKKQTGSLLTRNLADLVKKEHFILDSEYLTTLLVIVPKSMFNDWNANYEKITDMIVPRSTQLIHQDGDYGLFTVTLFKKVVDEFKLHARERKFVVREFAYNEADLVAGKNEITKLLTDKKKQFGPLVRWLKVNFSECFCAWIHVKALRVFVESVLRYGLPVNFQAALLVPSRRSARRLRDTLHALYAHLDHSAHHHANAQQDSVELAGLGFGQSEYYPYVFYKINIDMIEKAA

[2] = target: T1, Manduca sexta V-ATPase subunit B (Manduca sexta (tobacco hornworm), UniProt P31401 1-494); assay: cryo-EM structure; V1 mixed with recombinant C for 1 h at 4 °C (1:5 V1:C molar ratio), Lacey grids, plunge-frozen; 20 Å reconstruction of V1(+C), homologous crystal structures fitted; details: both partners purified
T1 construct: V-ATPase subunit B, Manduca sexta; 56 kDa on SDS-PAGE; Seen as part of the V1 complex in the cryo-EM reconstruction; also called B subunits; source: endogenous, within V1 purified from Manduca sexta
T1 sequence (P31401 whole entry): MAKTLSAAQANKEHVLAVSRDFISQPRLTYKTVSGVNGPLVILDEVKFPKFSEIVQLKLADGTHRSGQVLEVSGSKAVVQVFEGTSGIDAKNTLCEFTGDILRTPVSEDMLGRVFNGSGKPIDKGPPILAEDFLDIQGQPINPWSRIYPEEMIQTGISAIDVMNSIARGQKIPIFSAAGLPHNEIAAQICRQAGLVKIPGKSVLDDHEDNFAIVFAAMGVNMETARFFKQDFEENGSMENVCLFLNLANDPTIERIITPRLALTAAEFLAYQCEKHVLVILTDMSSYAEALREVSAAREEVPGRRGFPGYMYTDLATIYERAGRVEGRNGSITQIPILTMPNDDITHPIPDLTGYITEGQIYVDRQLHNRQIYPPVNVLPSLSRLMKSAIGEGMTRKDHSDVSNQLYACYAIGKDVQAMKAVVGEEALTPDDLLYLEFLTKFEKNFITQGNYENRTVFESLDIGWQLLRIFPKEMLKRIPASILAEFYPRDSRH

stoichiometry N (C per V1 (1 per H, 1 per 3 A)) [1]: 1
Molecule: Manduca sexta V-ATPase V1 domain (deactivated, washed with 25% methanol to remove residual subunit C) (complex)

binding result [2]: binds
B1: Manduca sexta V-ATPase subunit E (natural protein, Manduca sexta (tobacco hornworm), UniProt P31402 1-226, looked up)
chain: MALSDADVQKQIKHMMAFIEQEANEKAEEIDAKAEEEFNIEKGRLVQQQRLKIMEYYEKKEKQVELQKKIQSSNMLNQARLKVLKVREDHVRNVLDEARKRLAEVPKDIKLYSDLLVTLIVQALFQLVEPTVTLRVRQADKALVESLLGRAQQDYKAKIKKDVVLKIDNENFLPPDTCGGIELIAAKGRIKISNTLESRLELIAQQLLPEIRNALFGRNPNRKFTD
notes: V-ATPase subunit E, Manduca sexta; 26 kDa on SDS-PAGE; Seen as part of the V1 complex in the cryo-EM reconstruction; also called subunit E of the E/G stator filaments S1-S3; source: endogenous, within V1 purified from Manduca sexta
